In data set [1] the target is T1, Fusion Protein No:1 (GST fused with insert SEQ ID NO:2).
T1 chain: QIKS

Data set [2] concerns the target T2, Fusion protein FP#2 (GST fused with insert SEQ ID NO:3).
T2 chain: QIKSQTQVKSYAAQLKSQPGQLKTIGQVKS

Data set [3] concerns the target T3, Fusion protein FP#3 (GST fused with insert SEQ ID NO:4).
T3 chain: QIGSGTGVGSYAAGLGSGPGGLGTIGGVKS

This is an account of results in patent publication US20040254347.

Entries after “also recorded” stand apart in the source; their conditions may differ.

B1: tissue transglutaminase from guinea pig's liver (protein)
chain: AEDLILERCDLQLEVNGRDHRTADLCRERLVLRRGQPFWLTLHFEGRGYEAGVDTLTFNAVTGPDPSEEAGTMARFSLSSAVEGGTWSASAVDQQDSTVSLLLSTPADAPIGLYRLSLEASTGYQGSSFVLGHFILLYNPRCPADAVYMDSDQERQEYVLTQQGFIYQGSAKFINGIPWNFGQFEDGILDICLMLLDTNPKFLKNAGQDCSRRSRPVYVGRVVSAMVNCNDDQGVLQGRWDNNYSDGVSPMSWIGSVDILRRWKDYGCQRVKYGQCWVFAAVACTVLRCLGIPTRVVTNFNSAHDQNSNLLIEYFRNESGEIEGNKSEMIWNFHCWVESWMTRPDLEPGYEGWQALDPTPQEKSEGTYCCGPVPVRAIKEGHLNVKYDAPFVFAEVNADVVNWIRQKDGSLRKSINHLVVGLKISTKSVGRDEREDITHTYKYPEGSEEEREAFVRANHLNKLATKEEAQEETGVAMRIRVGQNMTMGSDFDIFAYITNGTAESHECQLLLCARIVSYNGVLGPVCSTNDLLNLTLDPFSENSIPLHILYEKYGDYLTESNLIKVRGLLIEPAANSYVLAERDIYLENPEIKIRVLGEPKQNRKLIAEVSLKNPLPVPLLGCIFTVEGAGLTKDQKSVEVPDPVEAGEQAKVRVDLLPTEVGLHKLVVNFECDKLKAVKGYRNVIIGPA
In the case of B1, the “cross-linking by transglutaminase, SDS-PAGE” value (“cross-linking” below) is recorded as “FP#1 was cross-linked to a dimer by the enzyme reaction; also recorded: FP#1, with the essential sequence of QXKS/T, is a good substrate of transglutaminases from different sources” in data set [1]; “the enzyme-catalyzed cross-links of FP#2 were very striking ... There were almost no FP#2 monomer left after the enzyme reaction” in data set [2]; “the enzyme was able to cross-link FP#3” in data set [3].

B2: mouse coagulating gland transglutaminase (TG4) (protein)
chain: MDSRNVLIIYAVNVERKLNAAAHHTSEYQTKKLVLRRGQIFTLKVILNRPLQPQDELKVTFTSGQRDPPYMVELDPVTSYRSKGWQVKIAKQSGVEVILNVISAADAVVGRYKMRVNEYKAGVFYLLFNPWCSDDSVFMASEEERAEYILNDTGYMYMGFAKQIKEKPWTFGQFEKHILSCCFNLLFQLENNEMQNPVLVSRAICTMMCAANGGVLMGNWTGDYADGTAPYVWTSSVPILQQHYVTRMPVRYGQCWVFSGILTTALRAVGIPARSVTNFESAHDTEKNLTVDIYLDESGKTIPHLTKDSVWNFHVWTDAWMKRQDLPHGYDGWQVLDSTPQEISDGGFRTGPSPLTAIRQGLIQMKYDTTFVFTEVNGDKFIWLVKQNQEREKNILIAVETASLGKKISTKMVGENRREDITLQYRFPEGSPEERKVMAKASGKPSDDKLNSRTLNNSLQISVLQNSLELGAPIYLTITLKRKTATPQNVNISCSLNLQTYTGNKKTNLGVIQKTVQIHGQESRVFLTMDASYYIYKLGMVDDEMVIGGFIIAEIVDSGERVATDTTLCFLYSAFSVEMPSTGKVKQPLVITSKFTNTLPIPLTNIKFSVESLGLANMKSWEQETVPPGKTITFQMECTPVKAGPQKFIVKFISRQVKEVHAEKVVLISK
As to B2, the “cross-linking” value in data set [1] is given as “FP#1, with the essential sequence of QXKS/T, is a good substrate of transglutaminases from different sources”.

B3: Thrombin-activated factor XIII (human blood factor XIII) (protein)
chain: GVNLQEFLNVTSVHLFKERWDTNKVDHHTDKYENNKLIVRRGQSFYVQIDFSRPYDPRRDLFRVEYVIGRYPQENKGTYIPVPIVSELQSGKWGAKIVMREDRSVRLSIQSSPKCIVGKFRMYVAVWTPYGVLRTSRNPETDTYILFNPWCEDDAVYLDNEKEREEYVLNDIGVIFYGEVNDIKTRSWSYGQFEDGILDTCLYVMDRAQMDLSGRGNPIKVSRVGSAMVNAKDDEGVLVGSWDNIYAYGVPPSAWTGSVDILLEYRSSENPVRYGQCWVFAGVFNTFLRCLGIPARIVTNYFSAHDNDANLQMDIFLEEDGNVNSKLTKDSVWNYHCWNEAWMTRPDLPVGFGGWQAVDSTPQENSDGMYRCGPASVQAIKHGHVCFQFDAPFVFAEVNSDLIYITAKKDGTHVVENVDATHIGKLIVTKQIGGDGMMDITDTYKFQEGQEEERLALETALMYGAKKPLNTEGVMKSRSNVDMDFEVENAVLGKDFKLSITFRNNSHNRYTITAYLSANITFYTGVPKAEFKKETFDVTLEPLSFKKEAVLIQAGEYMGQLLEQASLHFFVTARINETRDVLAKQKSTVLTIPEIIIKVRGTQVVGSDMTVTVEFTNPLKETLRNVWVHLDGPGVTRPMKKMFREIRPNSTVQWEEVCRPWVSGHRKLIASMSSDSLRHVYGELDVQIQRRPSM
On to B3, for which, in data set [1], the “cross-linking” value was “FP#1, with the essential sequence of QXKS/T, is a good substrate of transglutaminases from different sources”.
